This assay addresses tubulin dimers. Briefly: MST.

Sequence of tubulin dimers (P68363 whole entry, chain 1 of 2): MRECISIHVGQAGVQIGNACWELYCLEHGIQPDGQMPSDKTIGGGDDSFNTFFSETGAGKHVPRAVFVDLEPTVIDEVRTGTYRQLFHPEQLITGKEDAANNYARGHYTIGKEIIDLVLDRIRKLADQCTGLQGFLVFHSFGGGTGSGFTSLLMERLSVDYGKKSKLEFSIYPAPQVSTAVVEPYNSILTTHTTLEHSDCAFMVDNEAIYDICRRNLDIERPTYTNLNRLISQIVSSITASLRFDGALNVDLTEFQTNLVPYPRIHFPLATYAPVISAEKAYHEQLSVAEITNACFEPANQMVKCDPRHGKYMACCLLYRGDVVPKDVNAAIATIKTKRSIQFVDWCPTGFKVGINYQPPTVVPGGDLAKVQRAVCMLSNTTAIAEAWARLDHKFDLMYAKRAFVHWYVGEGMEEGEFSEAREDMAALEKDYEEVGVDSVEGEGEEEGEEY
Sequence of tubulin dimers (A8K068 whole entry, chain 2 of 2, further chain): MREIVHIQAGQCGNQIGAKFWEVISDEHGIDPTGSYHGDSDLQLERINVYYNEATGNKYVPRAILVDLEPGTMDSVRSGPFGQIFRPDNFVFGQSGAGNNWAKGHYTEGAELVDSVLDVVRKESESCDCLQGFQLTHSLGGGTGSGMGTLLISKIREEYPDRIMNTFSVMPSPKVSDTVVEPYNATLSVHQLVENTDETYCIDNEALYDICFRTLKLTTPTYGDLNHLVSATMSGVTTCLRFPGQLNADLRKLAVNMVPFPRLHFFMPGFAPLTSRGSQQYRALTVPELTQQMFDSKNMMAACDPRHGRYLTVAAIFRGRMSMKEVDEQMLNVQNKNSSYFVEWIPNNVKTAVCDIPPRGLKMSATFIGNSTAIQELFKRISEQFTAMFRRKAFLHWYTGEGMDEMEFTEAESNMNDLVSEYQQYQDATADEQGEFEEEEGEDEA

B1: GMΔNT phosphorylated by Aurora B/INCENP, Q91636 187-730 (domain or fragment)
chain: GRNNQGRRKSNIVKEMEKMKNKREEQRAQNYERRMKRAQDYDTSVPNWEFGKMIKEFRATMDCHRISMADPAEEHRICVCVRKRPLNKQELSKKEIDIISVPSKNIVLVHEPKLKVDLTKYLENQAFRFDFSFDETATNEVVYRFTARPLVQSIFEGGKATCFAYGQTGSGKTHTMGGDFSGKSQNVSKGVYAFASRDVFLLLDQPRYKHLDLDVFVTFFEIYNGKVFDLLNKKTKLRVLEDAKQEVQVVGLLEKQVISADDVFKMIEIGSACRTSGQTFANTSSSRSHACLQIILRRGSKLHGKFSLVDLAGNERGVDTASADRITRMEGAEINRSLLALKECIRALGQNKSHTPFRESKLTQILRDSFIGENSRTCMIAMLSPGFNSCEYTLNTLRYADRVKELSPQNAETNDDNLQMEDSGGSHASIEGLQLQDDFLLKDEELSTHNSFQDALNRVGELEDKAVDELRELVQKEPEWTNLLQMTEQPDYDLENFVMQAEYLIQERSKVLIALGDSINSLRLALQVEEQASKQISKKKRSNK
modifications: here or on the partner: phosphorylated by Aurora B/INCENP (S196 is retained in this region)
In turn, B1 gave a fold increase in Kd against non-phosphorylated GMΔNT of 16 fold.

For the origin of these results see PMC3897551.
